Numbered stars: 1 amine (or outer) side, 2 acyl side, 3 side chain; on linkers, the order of the positions; unused ones are H or OH. * marks the point of attachment. pNA = O=[N+]([O-])c1ccc(N*)cc1; Suc = O=C(CCC(=O)[*:2])[*:1]

For experiment [1], the target named is Pro21717-CD, catalytic domain of the cold-active subtilisin-like serine protease Pro21717 from Pseudoalteromonas arctica PAMC 21717 (Pseudoalteromonas arctica PAMC 21717). Briefly: not stated; purified Pro21717-CD in solution, three days after refolding; method in S2 Fig, not shown.
Experiment [2] shares this target.

The molecule “Pro21717-CD, catalytic domain of the cold-active subtilisin-like serine protease Pro21717 from Pseudoalteromonas arctica PAMC 21717 (domain or fragment)” yielded a stoichiometry N in experiment [1] of 2.
With Suc-AAPF-pNA [N-succinyl-Ala-Ala-Pro-Phe-p-nitroanilide], the relative proteolytic activity (%) on N-succinyl-AAPF-p-nitroanilide, 0.83 mM, 30°C, 5 min (the best peptide substrate, set to 100) in experiment [2] stood at 100%.

Broadly, the stoichiometry N is a count of units in the complex or per binding partner.

Values taken from PMC5821440.
